Results reported in patent US20240132578A1.
Several values for one entry are separate records, joined by “and”; a condition that tells them apart may be missing. Identical values can stand only once.

What was measured:
Test in all cases: cell-based or functional assay
[1] = biological target: HIV-1 Env of pseudovirus MGRM-C-26 (HIV-1)
[2] = biological target: HIV-1 Env of pseudovirus JRCSF (HIV-1) (UniProt P20871)
[3] = biological target: HIV-1 Env of pseudovirus 92TH021 (HIV-1)

B1: PGT-135 (B cell culture wells 5343_B8 and 5344_E16) (antibody, V domains shown)
VH: QLQMQESGPGLVKPSETLSLSCTVSGDSIRGGEWGDKDYHWGWVRHSAGKGLEWIGSIHWRGTTHYKESLRRRVSMSIDTSRNWFSLRLASVTAADTAVYFCARHRHHDVFMLVPIAGWFDVWGPGVQVTVSS
VL: EIVMTQSPDTLSVSPGETVTLSCRASQNINKNLAWYQYKPGQSPRLVIFETYSKIAAFPARFVASGSGTEFTLTINNMQSEDVAVYYCQQYEEWPRTFGQGTKVDIK
Primary Neutralization Index (B cell culture supernatant) [1]: 6.5 and 3.6 | Primary Neutralization Index (B cell culture supernatant) [2]: 1.8 and 1.5

B2: PGT-130 (B cell culture well 5147_N6) (antibody, V domains shown)
VH: QVQLQESGPGLVKPAETLSLTCSVSGESINTGHYYWGWVRQVPGKGLEWIGHIHYTTAVLHNPSLKSRLTIKIYTLRNQITLRLSNVTAADTAVYHCVRSGGDILYYYEWQKPHWFSPWGPGIHVTVSS
VL: QSALTQPPSASGSLGQSVTISCNGTSSDIGGWNFVSWYQQFPGRAPRLIIFEVNKRPSGVPGRFSGSKSGNSASLTVSGLQSDDEGQYFCSSLFGRWDVVFGGGTKLTVL
Polyclonal Transfectant Neutralization Index [1]: 1.05 | Primary Neutralization Index (B cell culture supernatant) [1]: 3 | Polyclonal Transfectant Neutralization Index [3]: 4.2 | Primary Neutralization Index (B cell culture supernatant) [3]: 538 | Polyclonal Transfectant Neutralization Index [2]: 1.24 | Primary Neutralization Index (B cell culture supernatant) [2]: 19.3

B3: PGT-125 (B cell culture well 5123_A6) (antibody, V domains shown)
VH: QSQLQESGPRLVEASETLSLTCNVSGESTGACTYFWGWVRQAPGKGLEWIGSLSHCQSFWGSGWTFHNPSLKSRLTISLDTPKNQVFLKLTSLTAADTATYYCARFDGEVLVYNHWPKPAWVDLWGRGIPVTVSS
VL: QSALTQPPSASGSPGQSITISCNGTATNFVSWYQQFPDKAPKLIIFGVDKRPPGVPDRFSGSRSGTTASLTVSRLQTDDEAVYYCGSLVGNWDVIFGGGTTLTVL
Polyclonal Transfectant Neutralization Index [1]: 88.3 | Primary Neutralization Index (B cell culture supernatant) [1]: 512 | Polyclonal Transfectant Neutralization Index [3]: 50.6 | Primary Neutralization Index (B cell culture supernatant) [3]: 133 | Polyclonal Transfectant Neutralization Index [2]: 119 | Primary Neutralization Index (B cell culture supernatant) [2]: 1730

B4: PGT-126 (B cell culture well 5141_B17) (antibody, V domains shown)
VH: QPQLQESGPGLVEASETLSLTCTVSGDSTAACDYFWGWVRQPPGKGLEWIGGLSHCAGYYNTGWTYHNPSLKSRLTISLDTPKNQVFLKLNSVTAADTAIYYCARFDGEVLVYHDWPKPAWVDLWGRGTLVTVSS
VL: QSALTQPPSASGSPGQSISISCTGTSNRFVSWYQQHPGKAPKLVIYGVNKRPSGVPDRFSGSKSGNTASLTVSGLQTDDEAVYYCSSLVGNWDVIFGGGTKLTVL
Polyclonal Transfectant Neutralization Index [1]: 102 | Primary Neutralization Index (B cell culture supernatant) [1]: 654 | Polyclonal Transfectant Neutralization Index [3]: 2.74 | Primary Neutralization Index (B cell culture supernatant) [3]: 2.3 | Polyclonal Transfectant Neutralization Index [2]: 102 | Primary Neutralization Index (B cell culture supernatant) [2]: 1410

B5: PGT-127 (B cell culture well 5145_B14) (antibody, V domains shown)
VH: QPQLQESGPGLVEASETLSLTCTVSGDSTGRCNYFWGWVRQPPGKGLEWIGSLSHCRSYYNTDWTYHNPSLKSRLTISLDTPKNQVFLRLTSVTAADTATYYCARFGGEVLVYRDWPKPAWVDLWGRGTLVVTVS
VL: QSALTQPPSASGSPGQSITISCTGTSNNFVSWYQQYPGKAPKLVIYEVNKRPSGVPDRFSGSKSGSTASLTVSGLQADDEGVYYCSSLVGNWDVIFGGGTKLTVL
Polyclonal Transfectant Neutralization Index [1]: 2.62 | Primary Neutralization Index (B cell culture supernatant) [1]: 86.9 | Polyclonal Transfectant Neutralization Index [3]: 0.94 | Primary Neutralization Index (B cell culture supernatant) [3]: 1 | Polyclonal Transfectant Neutralization Index [2]: 1.61 | Primary Neutralization Index (B cell culture supernatant) [2]: 31.1

B6: PGT-128 (B cell culture well 5114_A19) (antibody, V domains shown)
VH: QPQLQESGPTLVEASETLSLTCAVSGDSTAACNSFWGWVRQPPGKGLEWVGSLSHCASYWNRGWTYHNPSLKSRLTLALDTPKNLVFLKLNSVTAADTATYYCARFGGEVLRYTDWPKPAWVDLWGRGTLVTVSS
VL: QSALTQPPSASGSPGQSITISCTGTSNNFVSWYQQHAGKAPKLVIYDVNKRPSGVPDRFSGSKSGNTASLTVSGLQTDDEAVYYCGSLVGNWDVIFGGGTKLTVL
Polyclonal Transfectant Neutralization Index [1]: 32.2 | Primary Neutralization Index (B cell culture supernatant) [1]: 17.1 | Polyclonal Transfectant Neutralization Index [3]: 10 | Primary Neutralization Index (B cell culture supernatant) [3]: 6.6 | Polyclonal Transfectant Neutralization Index [2]: 136 | Primary Neutralization Index (B cell culture supernatant) [2]: 77.5
